Experimental data published in patent publication US20240270846A1 (published 2024).

B1: CE115HA000 D101P one-arm antibody (antibody, human IgG1, kappa, L234A L235A, N297A, name in Kabat numbering)
heavy: QVQLVESGGGVVQPGRSLRLSCAASGFTFSNAWMHWVRQAPGKGLEWVAQIKAKSNNYATYYAESVKGRFTISRDDSKNSLYLQMNSLKTEDTAVYYCRYVHYGAYYGVPAWGQGTTVTVSSASTKGPSVFPLAPSSKSTSGGTAALGCLVKDYFPEPVTVSWNSGALTSGVHTFPAVLQSSGLYSLSSVVTVPSSSLGTQTYICNVNHKPSNTKVDKKVEPKSCDKTHTCPPCPAPEAAGGPSVFLFPPKPKDTLMISRTPEVTCVVVDVSHEDPEVKFNWYVDGVEVHNAKTKPREEQYASTYRVVSVLTVLHQDWLNGKEYKCKVSNKALPAPIEKTISKAKGQPREPQVYTLPPSRCELTKNQVSLSCAVKGFYPSDIAVEWESNGQPENNYKTTPPVLDSDGSFFLVSKLTVDKSRWQQGNVFSCSVMHEALHNHYTQKSLSLSPDYKDDDDK
chain: EPKSSDKTHTCPPCPAPELLGGPSVFLFPPKPKDTLMISRTPEVTCVVVDVSHEDPEVKFNWYVDGVEVHNAKTKPREEQYNSTYRVVSVLTVLHQDWLNGKEYKCKVSNKALPAPIEKTISKAKGQPREPQVCTLPPSRDELTKNQVSLWCLVKGFYPSDIAVEWESNGQPENNYKTTPPVLDSDGSFFLYSKLTVDKSRWQQGNVFSCSVMHEALHNRYTQKSLSLSP
light: DIVMTQSPLSLPVTPGEPASISCRSSQSLVHSNRNTYLHWYQQKPGQAPRLLIYKVSNRFSGVPDRFSGSGSGTDFTLKISRVEAEDVGVYYCGQGTQVPYTFGQGTKLEIKRTVAAPSVFIFPPSDEQLKSGTASVVCLLNNFYPREAKVQWKVDNALQSGNSQESVTEQDSKDSTYSLSSTLTLSKADYEKHKVYACEVTHQGLSSPVTKSFNRGEC
notes: one-arm antibody (one Fab)
B2: CE115HA000 D101T one-arm antibody (antibody, human IgG1, kappa, L234A L235A, N297A, name in Kabat numbering)
heavy: QVQLVESGGGVVQPGRSLRLSCAASGFTFSNAWMHWVRQAPGKGLEWVAQIKAKSNNYATYYAESVKGRFTISRDDSKNSLYLQMNSLKTEDTAVYYCRYVHYGAYYGVTAWGQGTTVTVSSASTKGPSVFPLAPSSKSTSGGTAALGCLVKDYFPEPVTVSWNSGALTSGVHTFPAVLQSSGLYSLSSVVTVPSSSLGTQTYICNVNHKPSNTKVDKKVEPKSCDKTHTCPPCPAPEAAGGPSVFLFPPKPKDTLMISRTPEVTCVVVDVSHEDPEVKFNWYVDGVEVHNAKTKPREEQYASTYRVVSVLTVLHQDWLNGKEYKCKVSNKALPAPIEKTISKAKGQPREPQVYTLPPSRCELTKNQVSLSCAVKGFYPSDIAVEWESNGQPENNYKTTPPVLDSDGSFFLVSKLTVDKSRWQQGNVFSCSVMHEALHNHYTQKSLSLSPDYKDDDDK
chain: EPKSSDKTHTCPPCPAPELLGGPSVFLFPPKPKDTLMISRTPEVTCVVVDVSHEDPEVKFNWYVDGVEVHNAKTKPREEQYNSTYRVVSVLTVLHQDWLNGKEYKCKVSNKALPAPIEKTISKAKGQPREPQVCTLPPSRDELTKNQVSLWCLVKGFYPSDIAVEWESNGQPENNYKTTPPVLDSDGSFFLYSKLTVDKSRWQQGNVFSCSVMHEALHNRYTQKSLSLSP
light: DIVMTQSPLSLPVTPGEPASISCRSSQSLVHSNRNTYLHWYQQKPGQAPRLLIYKVSNRFSGVPDRFSGSGSGTDFTLKISRVEAEDVGVYYCGQGTQVPYTFGQGTKLEIKRTVAAPSVFIFPPSDEQLKSGTASVVCLLNNFYPREAKVQWKVDNALQSGNSQESVTEQDSKDSTYSLSSTLTLSKADYEKHKVYACEVTHQGLSSPVTKSFNRGEC
notes: one-arm antibody (one Fab)
B3: CE115HA000 D101Q one-arm antibody (antibody, human IgG1, kappa, L234A L235A, N297A, name in Kabat numbering)
heavy: QVQLVESGGGVVQPGRSLRLSCAASGFTFSNAWMHWVRQAPGKGLEWVAQIKAKSNNYATYYAESVKGRFTISRDDSKNSLYLQMNSLKTEDTAVYYCRYVHYGAYYGVQAWGQGTTVTVSSASTKGPSVFPLAPSSKSTSGGTAALGCLVKDYFPEPVTVSWNSGALTSGVHTFPAVLQSSGLYSLSSVVTVPSSSLGTQTYICNVNHKPSNTKVDKKVEPKSCDKTHTCPPCPAPEAAGGPSVFLFPPKPKDTLMISRTPEVTCVVVDVSHEDPEVKFNWYVDGVEVHNAKTKPREEQYASTYRVVSVLTVLHQDWLNGKEYKCKVSNKALPAPIEKTISKAKGQPREPQVYTLPPSRCELTKNQVSLSCAVKGFYPSDIAVEWESNGQPENNYKTTPPVLDSDGSFFLVSKLTVDKSRWQQGNVFSCSVMHEALHNHYTQKSLSLSPDYKDDDDK
chain: EPKSSDKTHTCPPCPAPELLGGPSVFLFPPKPKDTLMISRTPEVTCVVVDVSHEDPEVKFNWYVDGVEVHNAKTKPREEQYNSTYRVVSVLTVLHQDWLNGKEYKCKVSNKALPAPIEKTISKAKGQPREPQVCTLPPSRDELTKNQVSLWCLVKGFYPSDIAVEWESNGQPENNYKTTPPVLDSDGSFFLYSKLTVDKSRWQQGNVFSCSVMHEALHNRYTQKSLSLSP
light: DIVMTQSPLSLPVTPGEPASISCRSSQSLVHSNRNTYLHWYQQKPGQAPRLLIYKVSNRFSGVPDRFSGSGSGTDFTLKISRVEAEDVGVYYCGQGTQVPYTFGQGTKLEIKRTVAAPSVFIFPPSDEQLKSGTASVVCLLNNFYPREAKVQWKVDNALQSGNSQESVTEQDSKDSTYSLSSTLTLSKADYEKHKVYACEVTHQGLSSPVTKSFNRGEC
notes: one-arm antibody (one Fab)
B4: CE115HA000 D101V one-arm antibody (antibody, human IgG1, kappa, L234A L235A, N297A, name in Kabat numbering)
heavy: QVQLVESGGGVVQPGRSLRLSCAASGFTFSNAWMHWVRQAPGKGLEWVAQIKAKSNNYATYYAESVKGRFTISRDDSKNSLYLQMNSLKTEDTAVYYCRYVHYGAYYGVVAWGQGTTVTVSSASTKGPSVFPLAPSSKSTSGGTAALGCLVKDYFPEPVTVSWNSGALTSGVHTFPAVLQSSGLYSLSSVVTVPSSSLGTQTYICNVNHKPSNTKVDKKVEPKSCDKTHTCPPCPAPEAAGGPSVFLFPPKPKDTLMISRTPEVTCVVVDVSHEDPEVKFNWYVDGVEVHNAKTKPREEQYASTYRVVSVLTVLHQDWLNGKEYKCKVSNKALPAPIEKTISKAKGQPREPQVYTLPPSRCELTKNQVSLSCAVKGFYPSDIAVEWESNGQPENNYKTTPPVLDSDGSFFLVSKLTVDKSRWQQGNVFSCSVMHEALHNHYTQKSLSLSPDYKDDDDK
chain: EPKSSDKTHTCPPCPAPELLGGPSVFLFPPKPKDTLMISRTPEVTCVVVDVSHEDPEVKFNWYVDGVEVHNAKTKPREEQYNSTYRVVSVLTVLHQDWLNGKEYKCKVSNKALPAPIEKTISKAKGQPREPQVCTLPPSRDELTKNQVSLWCLVKGFYPSDIAVEWESNGQPENNYKTTPPVLDSDGSFFLYSKLTVDKSRWQQGNVFSCSVMHEALHNRYTQKSLSLSP
light: DIVMTQSPLSLPVTPGEPASISCRSSQSLVHSNRNTYLHWYQQKPGQAPRLLIYKVSNRFSGVPDRFSGSGSGTDFTLKISRVEAEDVGVYYCGQGTQVPYTFGQGTKLEIKRTVAAPSVFIFPPSDEQLKSGTASVVCLLNNFYPREAKVQWKVDNALQSGNSQESVTEQDSKDSTYSLSSTLTLSKADYEKHKVYACEVTHQGLSSPVTKSFNRGEC
notes: one-arm antibody (one Fab)
B5: CE115HA000 D101S one-arm antibody (antibody, human IgG1, kappa, L234A L235A, N297A, name in Kabat numbering)
heavy: QVQLVESGGGVVQPGRSLRLSCAASGFTFSNAWMHWVRQAPGKGLEWVAQIKAKSNNYATYYAESVKGRFTISRDDSKNSLYLQMNSLKTEDTAVYYCRYVHYGAYYGVSAWGQGTTVTVSSASTKGPSVFPLAPSSKSTSGGTAALGCLVKDYFPEPVTVSWNSGALTSGVHTFPAVLQSSGLYSLSSVVTVPSSSLGTQTYICNVNHKPSNTKVDKKVEPKSCDKTHTCPPCPAPEAAGGPSVFLFPPKPKDTLMISRTPEVTCVVVDVSHEDPEVKFNWYVDGVEVHNAKTKPREEQYASTYRVVSVLTVLHQDWLNGKEYKCKVSNKALPAPIEKTISKAKGQPREPQVYTLPPSRCELTKNQVSLSCAVKGFYPSDIAVEWESNGQPENNYKTTPPVLDSDGSFFLVSKLTVDKSRWQQGNVFSCSVMHEALHNHYTQKSLSLSPDYKDDDDK
chain: EPKSSDKTHTCPPCPAPELLGGPSVFLFPPKPKDTLMISRTPEVTCVVVDVSHEDPEVKFNWYVDGVEVHNAKTKPREEQYNSTYRVVSVLTVLHQDWLNGKEYKCKVSNKALPAPIEKTISKAKGQPREPQVCTLPPSRDELTKNQVSLWCLVKGFYPSDIAVEWESNGQPENNYKTTPPVLDSDGSFFLYSKLTVDKSRWQQGNVFSCSVMHEALHNRYTQKSLSLSP
light: DIVMTQSPLSLPVTPGEPASISCRSSQSLVHSNRNTYLHWYQQKPGQAPRLLIYKVSNRFSGVPDRFSGSGSGTDFTLKISRVEAEDVGVYYCGQGTQVPYTFGQGTKLEIKRTVAAPSVFIFPPSDEQLKSGTASVVCLLNNFYPREAKVQWKVDNALQSGNSQESVTEQDSKDSTYSLSSTLTLSKADYEKHKVYACEVTHQGLSSPVTKSFNRGEC
notes: one-arm antibody (one Fab)
B6: CE115HA000 D101R one-arm antibody (antibody, human IgG1, kappa, L234A L235A, N297A, name in Kabat numbering)
heavy: QVQLVESGGGVVQPGRSLRLSCAASGFTFSNAWMHWVRQAPGKGLEWVAQIKAKSNNYATYYAESVKGRFTISRDDSKNSLYLQMNSLKTEDTAVYYCRYVHYGAYYGVRAWGQGTTVTVSSASTKGPSVFPLAPSSKSTSGGTAALGCLVKDYFPEPVTVSWNSGALTSGVHTFPAVLQSSGLYSLSSVVTVPSSSLGTQTYICNVNHKPSNTKVDKKVEPKSCDKTHTCPPCPAPEAAGGPSVFLFPPKPKDTLMISRTPEVTCVVVDVSHEDPEVKFNWYVDGVEVHNAKTKPREEQYASTYRVVSVLTVLHQDWLNGKEYKCKVSNKALPAPIEKTISKAKGQPREPQVYTLPPSRCELTKNQVSLSCAVKGFYPSDIAVEWESNGQPENNYKTTPPVLDSDGSFFLVSKLTVDKSRWQQGNVFSCSVMHEALHNHYTQKSLSLSPDYKDDDDK
chain: EPKSSDKTHTCPPCPAPELLGGPSVFLFPPKPKDTLMISRTPEVTCVVVDVSHEDPEVKFNWYVDGVEVHNAKTKPREEQYNSTYRVVSVLTVLHQDWLNGKEYKCKVSNKALPAPIEKTISKAKGQPREPQVCTLPPSRDELTKNQVSLWCLVKGFYPSDIAVEWESNGQPENNYKTTPPVLDSDGSFFLYSKLTVDKSRWQQGNVFSCSVMHEALHNRYTQKSLSLSP
light: DIVMTQSPLSLPVTPGEPASISCRSSQSLVHSNRNTYLHWYQQKPGQAPRLLIYKVSNRFSGVPDRFSGSGSGTDFTLKISRVEAEDVGVYYCGQGTQVPYTFGQGTKLEIKRTVAAPSVFIFPPSDEQLKSGTASVVCLLNNFYPREAKVQWKVDNALQSGNSQESVTEQDSKDSTYSLSSTLTLSKADYEKHKVYACEVTHQGLSSPVTKSFNRGEC
notes: one-arm antibody (one Fab)

These binders were tested against T1, CD3 epsilon homodimer protein (UniProt P07766 23-126) (assay: SPR Biacore T200, CD3 epsilon homodimer on CM4 chip, antibody as analyte;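 further: Amine-coupled CD3 epsilon homodimer, run at 25 °C in HBS-EP+ buffer, ratio is bound amount of each single-residue H chain variant over that of the parent antibody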).
T1 construct: Immobilized on Sensor chip CM4 by amine coupling; construct not described; also called CD3 (CD3 epsilon)
T1 sequence (P07766 23-126): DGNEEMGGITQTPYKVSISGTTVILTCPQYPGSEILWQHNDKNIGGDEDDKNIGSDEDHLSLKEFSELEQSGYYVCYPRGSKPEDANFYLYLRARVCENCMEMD
For B1, the “ratio of amounts bound (Y/X vs CE115HA000)” value (“ratio of amounts bound” for short) was 0.2. In the case of B2, the “ratio of amounts bound” value is reported as 0.79. In the case of B3, the “ratio of amounts bound” value is reported as 2.35. With B4 the “ratio of amounts bound” value was 1.33. With B5 the “ratio of amounts bound” value was 1.16. In the case of B6, the “ratio of amounts bound” value is reported as 0.24.
